Measurements taken from US20210261944, “Compositions and methods for ordered and continuous complementary DNA (cDNA) synthesis across non-continuous templates” (The Regents of the University of California, published 2021).

Experiments:
[1] = molecular target: T1, BomoC(ed) R2 RT (deltaN274, D996A) (Bombyx mori); test: primer for low-PCR cDNA library; Mg2+, 37C; settings: tags: N-terminal MBP, C-terminal 6xHis; partial duplex
T1 chain: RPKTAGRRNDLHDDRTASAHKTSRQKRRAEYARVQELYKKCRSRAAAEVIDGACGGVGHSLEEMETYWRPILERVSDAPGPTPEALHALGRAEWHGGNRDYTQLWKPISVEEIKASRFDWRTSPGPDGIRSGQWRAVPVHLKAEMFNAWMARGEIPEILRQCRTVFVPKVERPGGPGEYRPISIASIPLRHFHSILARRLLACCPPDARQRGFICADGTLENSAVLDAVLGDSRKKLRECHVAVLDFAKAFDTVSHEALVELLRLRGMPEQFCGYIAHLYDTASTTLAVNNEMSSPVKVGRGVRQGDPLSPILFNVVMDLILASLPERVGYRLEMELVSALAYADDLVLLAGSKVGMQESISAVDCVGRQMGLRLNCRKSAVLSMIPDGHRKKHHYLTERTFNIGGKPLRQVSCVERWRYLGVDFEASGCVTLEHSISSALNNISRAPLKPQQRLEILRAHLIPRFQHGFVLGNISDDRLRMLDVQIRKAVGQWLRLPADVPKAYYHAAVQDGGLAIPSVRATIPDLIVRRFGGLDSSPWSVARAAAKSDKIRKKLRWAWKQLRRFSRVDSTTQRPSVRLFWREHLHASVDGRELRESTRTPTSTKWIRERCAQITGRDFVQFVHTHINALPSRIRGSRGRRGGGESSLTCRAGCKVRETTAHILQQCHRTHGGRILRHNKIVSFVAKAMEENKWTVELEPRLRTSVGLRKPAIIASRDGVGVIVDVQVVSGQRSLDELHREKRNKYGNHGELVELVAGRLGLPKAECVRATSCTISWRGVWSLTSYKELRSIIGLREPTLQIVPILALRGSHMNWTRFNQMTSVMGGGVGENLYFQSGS

[2] = molecular target: T1, BomoC(ed) R2 RT (deltaN274, D996A); test: primer extended across ddA-tailed miRNA pool; full-length cDNA library; Mg2+, 37C; enzyme named as modified R2 RT; settings: tags: N-terminal MBP, C-terminal 6xHis; partial duplex, +1T 3' overhang
Description: (§1) FIG. 15B. Analysis of reaction products by denaturing PAGE and SYBR Gold staining using a template RNA pool of 963 equimolar miRNA sequences (miRXplore). The full-length cDNA library (labeled cDNA+adaptor template) and some cDNA product from copying of the miRNA template only (labeled cDNA) are the predominant products. Excess adaptor primer and adaptor template are also stained. “No enz” is the no enzyme control. Lane+/− indicates addition of RNase A after product denaturation, which removes the non-extended strand of the primer duplex and truncates the ˜70 nt 3′ adaptor template. The library was sequenced with results shown in comparison to a low-cycle-PCR library in FIG. 16B.
(§2) Typical assays for cDNA synthesis by processive use of multiple template molecules (i.e., serial template copying) used a DNA primer that was annealed in full or part to a second strand, usually RNA, to generate a primer 3′ end that was blunt duplex or a short 3′ overhang of defined sequence. Templates included chemically synthesized RNA or DNA oligonucleotides and/or RNAs purified after T7 RNA polymerase transcription; templates were also isolated from biological sources. Reaction conditions were typically 20 mM Tris-HCl pH 7.5, 150 mM KCl, 2 mM MgCl₂, 10% glycerol with incubations at room temperature or 37° C. […]

[3] = molecular target: T1, BomoC(ed) R2 RT (deltaN274, D996A); test: used as second (terminal) template in ordered template relay; Mg2+, 37C; settings: tags: N-terminal MBP, C-terminal 6xHis; partial duplex, 3' C
Description: as §1, §2

B1: low-PCR adaptor primer duplex c5p(uni)/c5pt (DNA:RNA)
DNA: GTGACTGGAGTTCAGACGTGTGCTCTTCCGATCC
RNA: GAUCGGAAGAGCACACGUCUGAACUCCAGU
modifications: 3' C3 spacer on RNA strand
binding result [1]: binds

B2: no-PCR adaptor primer partial duplex c5p(FL)/c5pt (DNA:RNA)
DNA: CAAGCAGAAGACGGCATACGAGATGACGAGAGGTGACTGGAGTTCAGACGTGTGCTCTTCCGATCT
RNA: GAUCGGAAGAGCACACGUCUGAACUCCAGU
modifications: 3' C3 spacer on RNA strand
binding result [2]: binds

B3: no-PCR adaptor template partial duplex c3t(FL)/c3t_comp (mixed)
DNA: AATGATACGGCGACCACCGAGATCTACACCGCAGACGACACTCTTTCCCTACACGACGCTCTTCCGATCTC
RNA: GUGUAGAUCUCGGUGGUCGCCGUAUCAUU
modifications: 5' amino modifier C6, mixed DNA/ribonucleotides; complement 3' C3 spacer
binding result [3]: binds
